The target in test [1] is M17-modified M NTAA target peptides. The test can be described thus: encoding assay; P2 Q.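 Further: fraction of recording tags encoded.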
In test [2] the target is M44-modified A NTAA target peptides (M44-A-P2-peptide). The test is described as follows: Gini coefficient of P2 tolerance from multiplex encoding heatmap.

B1: upgraded binder after additional maturation round (SEQ ID NO: 62) (designed binder, not shown: small tags and cut ends; large carriers)
chain: TVPDRSEIAGKWYVVALASNTEFYLRGKDRVKSAMVRISFQGEDELKVSSAVPSPNGCYKVERTWKKTSDDGEVYNSRAAKLKVEVLDTDYKSYAVIYATRVKDRRTDHQMILYSRSPDVSPAATAIFRKLAGERNYTDEMVAMLPRQEECTVDEV
In turn, B1 gave an encoding yield in test [1] of 0.01.

B2: engineered M44-A binder (SEQ ID NO: 42) (designed binder, not shown: small tags and cut ends; large carriers)
chain: QVSVQPNFQQDKFLGRWFVAGLASNSSWDREKVAALSGAKMVVAPATDGGLNVTRTMLRKNQCETYTGLLQPAGSLGSYSWRSPHPGSTGSESVVETDYDQYALVYGQGSKGPGEDLRAAALWSRTQTPRAELKEKFTAFSKAQGFTEDTIVFLPQTDKCMTEQ
Consider B2, for which the P2 score in test [2] was determined as 0.376.

Values taken from patent US20230220589A1.
